# According to patent US20220073643A1:
# Substitutions are numbered along the chain they refer to.
# B1: 201F4H6 (antibody, V domains shown)
# VH: QVQLKESGPGLVAPSQSLSITCTVSGFSLTSYGVSWVRQPPGKGLECLGVIWAGGNTNYNSALMSRLSISKDKSKSQVFLKMNSLQTDDTAMYYCARVYYGNAMDYWGQGTSVTVSS
# VL: DIVMTQSPSSLTVTAGEKVTMSCKSSQSLLNSGNQKSYLTWYQQRPGQPPKLLIYWASTRESGVPDRFTGSGSGTDFTLTISSVQAEDLAVYFCQNVYFFPFTFGSGTKLETK
# B2: 417A6F11 (antibody, V domains shown)
# VH: EVQLQQSGPELVKPGASMKISCKASGYSFTGYTMNWVKQSHGKNLEWIGLINPYNGGTSYNQKFKGKATLTVDKSSSTAYMELLSLTSEDSAVYYCARGDYWGQGTTLTVSS
# VL: DIVMTQSPSSLTVTAGEKVTMSCKSSQSLLNSGNQKNYLTWYQQKPGQPPKLLIYWASTRESGVPDRFTGSGSGTDFTLTISSVQAEDLAVYYCQNDYSYPTFGAGTKLELK
# B3: 409G10G6 (antibody, V domains shown)
# VH: DVQLVESGGGLVQPGGSRKLSCAASGFTFSGFGMHWIRQTPEKGLEWVAYISSDSRPIYYADTVKGRFTISRDNPKNTLFLQMTSLRSEDTAMYFCGRFYYGNSFDHWGQGTLVTVSA
# VL: DIVMTQSPSFLTVTAGEKVTLSCRSSQSLLNSGNQRNYLTWYQQKPGQPPKLLIYWASTRESGVPDRFTGSGSGTDFTLTISSVQAEDRALYYCQNAYSFPLTFGTGTKLELR
# B4: 411A6E3 (antibody, V domains shown)
# VH: B3 VH with G31D, D54G, G97V, Y101F
# VL: B3 VL with L21M, S22T, S28N, Q35L, R36K, Y55S, A86P, R89L, T106A, R113K
# B5: 420F12G8 (antibody, V domains shown)
# VH: B3 VH with T28A, D54G, G97V
# VL: B3 VL with L21M, S22T, S28N, R36K, Y55S, A86P, R89L, L102F, T106A, R113K
# B6: 419A5F3 (antibody, V domains shown)
# VH: B3 VH
# VL: B3 VL
# B7: 420H7E6 (antibody, V domains shown)
# VH: DVQLVESGGGLVQPGGSRKLSCVTSGFTFSSFGMHWIRQAPEKGLEWVAFISGGGSPIFYADSVKGRFTVSRDNPKNTLFLQMTGLRSEDTAMYFCARFYFGNSFAYWGQGTLVTVSA
# VL: DIVMAQSPSSLTVTAGEKVTMNCRSSQSLFNSGNQKNYLTWYQQKPGQPPKLLIYWASTRESGVPVRFTGSGSGTDFTLTISSVQAEDLAVYYCQTGFSYPLTFGPGTKLELK
# B8: 423C10E1 (antibody, V domains shown)
# VH: B7 VH with I37V
# VL: B7 VL with A5T, P49S, G97S, S99N
# B9: 200A4H8 (antibody, V domains shown)
# VH: QVQLKQSGPGLVQPSQSLSITCTVSGFSLTRYGVHWVRQSPGKGLEWLGVIWSGGNTDYNAAFISRLNIRKDNSKSQVFFKMNSLKPNDTAIYYCARAAYFGNSFDYWGQGTTLTVSS
# VL: DIVMTQSPSSLPVTAGEKVTMSCKSSQSLLNSGNQKNYLTWYQQKPGQPPKLLIYWASTRDSGVPDRFTGSGSGTDFTLTISSVQAEDLAVYYCQNNYIYPLTFGAGTKLELK
# B10: 420G10G3 (antibody, V domains shown)
# VH: B3 VH with P41A, D54G, K65Q, G97A
# VL: B3 VL with L21M, R24K, R36K, R89L, T106A, R113K
# B11: 410H6H3 (antibody, V domains shown)
# VH: DVLLVESGGGLVQPGGSRKLSCAASGFTFSSSGMHWVRQAPEKGLEWVAYISSGSNTIYYADTLKGRFTISRDNPKNTLFLQMTSLRSEDTAMYYCARIYYGNSFVYWGQGTLVTVSA
# VL: B9 VL with P12T, T20I, L52M, D61E, T69R, I99Y, A106T, E111A
# B12: 409D1A7 (antibody, V domains shown)
# VH: B3 VH with D54G, Q82H, G97A
# VL: B3 VL with L21M, S22N, R24K, R89L, T106A, R113N
# B13: 413B1C9 (antibody, V domains shown)
# VH: B3 VH with G31S, I37V, T40A, D54G, R56S, G97A
# VL: B9 VL with P12T, A15T, T20S, L30F, S32R, N37S, D61E
# B14: 418B8B10 (antibody, V domains shown)
# VH: B3 VH with G31S, I37V, T40A, D54G, R56S, A61T, G97A
# VL: B9 VL with P12T, T20S, L30F, S32R, N37S, K45R, D61E
# B15: 411G3E10 (antibody, V domains shown)
# VH: B3 VH with D54G, G97A
# VL: B3 VL with L21M, S22N, R36K, R89L, T106A, R113K
# B16: 416F12F3 (antibody, V domains shown)
# VH: B11 VH with L3Q, S32F, N56S, D62H, T63S, L64V, R87G, I99F, V106A
# VL: B9 VL with P12T, M21L, L52M, D61E, N97A, I99T, K109R
# B17: 422E8F9 (antibody, V domains shown)
# VH: B3 VH with D54G, K65Q, G97A, A118S
# VL: B3 VL with L21M, R24K, R36K, R89L, T106A, R113K
# B18: 203A6C9 (antibody, V domains shown)
# VH: B9 VH
# VL: B9 VL
# B19: 203A6D5 (antibody, V domains shown)
# VH: B9 VH
# VL: B9 VL
# B20: 422F4B6 (antibody, V domains shown)
# VH: B11 VH with L3Q, T28S, S32F, N56S, T57P, L64V, T69I, Y95F, V106A
# VL: B9 VL with P12T, S28T, D61E, N97A, I99S, A106S
# B21: 419A10D4 (antibody, V domains shown)
# VH: B3 VH with D54G, G97A
# VL: B3 VL with L21M, R24K, I81V, R89L, T106A, R113K
# B22: 420D5H5 (antibody, V domains shown)
# VH: B3 VH with F29L, D54G, A61V, K65E, G97A, A118S
# VL: B3 VL with L21M, R24K, R36K, S82R, S83G, R89L, T106A, R113K
# B23: 412B6E4 (antibody, V domains shown)
# VH: DVQLVESGGGLVQPGGSRKLSCAASGFTFSSFGVHWVRQAPEKGLEWVAYISSGSSTIYYAHSVKGRFTISRDNPKNTLFLQMTSLGSEDTATYYCARFYYGNSFAYWGQGTLVTVSA
# VL: B9 VL with P12T, L52M, D61E, N97A, I99T, K109R
# B24: 414H6G2 (antibody, V domains shown)
# VH: B3 VH with P41A, D54G, K65Q, G97A
# VL: B3 VL with L21M, R24K, R36K, R89L, T106A, R113K
# B25: 414A5F7 (antibody, V domains shown)
# VH: B11 VH with L3Q, S32F, N56S, T57P, L64V, Y95F, V106A
# VL: B9 VL with P12T, T20A, S28T, I54L, D61E, N97A, I99Y, A106S
# B26: 420H3H9 (antibody, V domains shown)
# VH: B23 VH with V34M, T93M
# VL: B9 VL with P12T, M21L, L52M, D61E, V91D, N97A, I99T, K109R
# B27: 413C12F8 (antibody, V domains shown)
# VH: B3 VH with M34V, S52G, D54G, G97A
# VL: B3 VL with L21M, S22N, R36K, K45R, R89L, T106A, R113K
# B28: 410A9A9 (antibody, V domains shown)
# VH: B23 VH with V34M, T57P, H62D, S63T, G87R, T93M, Y95F, R98T
# VL: B9 VL with P12T, S28T, P46S, D61E, N97A, I99S, L102V, A106S, L110V
# B29: 421H4G3 (antibody, V domains shown)
# VH: B3 VH with T28S, M34L, D54G, G97A, Y101F, A118T
# VL: B3 VL with L21M, S82N, R89L, T106A, R113K
# B30: 411B4G4 (antibody, V domains shown)
# VH: B3 VH with M34L, D54G, G97A
# VL: B3 VL with L21M, R89L, T106A, R113K
# Target: Claudin18.2-His protein (human)
# Assay: indirect ELISA on coated Claudin18.2-His
row,Binder,EC50
1,B1,119 ng/mL
2,B2,42.8 ng/mL
3,B3,9.52 ng/mL
4,B4,6.74 ng/mL
5,B5,17.6 ng/mL
6,B6,5.51 ng/mL
7,B7,54.5 ng/mL
8,B8,29.7 ng/mL
9,B9,10.5 ng/mL
10,B10,11.3 ng/mL
11,B11,2.93 ng/mL
12,B12,7.75 ng/mL
13,B13,3.46 ng/mL
14,B14,8.87 ng/mL
15,B15,5.43 ng/mL
16,B16,11.5 ng/mL
17,B17,8.73 ng/mL
18,B18,65.4 ng/mL
19,B19,27.1 ng/mL
20,B20,149 ng/mL
21,B21,6.53 ng/mL
22,B22,23.9 ng/mL
23,B23,6.31 ng/mL
24,B24,11.6 ng/mL
25,B25,8.05 ng/mL
26,B26,7.22 ng/mL
27,B27,6.82 ng/mL
28,B28,20.8 ng/mL
29,B29,7.53 ng/mL
30,B30,9.45 ng/mL
